This is an account of results in publication PMC9360449, “Programmable RNA targeting by bacterial Argonaute nucleases with unconventional guide binding and cleavage specificity”.

In data set [1] the test system is PnyAgo WT (Pedobacter nyackensis). As to the kind of experiment: filter binding. As to conditions: 10 mM Tris-HCl pH 7.9, 100 mM NaCl, 5 mM MgCl2 (or none), 5% glycerol, 100 ug/ml BSA, 37 C.
For data set [2] the test system is unchanged. As to the kind of experiment: competition. As to conditions: filter binding, 100 nM pAgo; 5'-OH; 10 mM Tris-HCl pH 7.9, 100 mM NaCl, 5 mM MgCl2 (or none), 5% glycerol, 100 ug/ml BSA, 37 C.
Data set [3] deals with T1, PliAgo WT (Pseudooceanicola lipolyticus, UniProt A0A2M8J4C7 1-789).
T1 sequence: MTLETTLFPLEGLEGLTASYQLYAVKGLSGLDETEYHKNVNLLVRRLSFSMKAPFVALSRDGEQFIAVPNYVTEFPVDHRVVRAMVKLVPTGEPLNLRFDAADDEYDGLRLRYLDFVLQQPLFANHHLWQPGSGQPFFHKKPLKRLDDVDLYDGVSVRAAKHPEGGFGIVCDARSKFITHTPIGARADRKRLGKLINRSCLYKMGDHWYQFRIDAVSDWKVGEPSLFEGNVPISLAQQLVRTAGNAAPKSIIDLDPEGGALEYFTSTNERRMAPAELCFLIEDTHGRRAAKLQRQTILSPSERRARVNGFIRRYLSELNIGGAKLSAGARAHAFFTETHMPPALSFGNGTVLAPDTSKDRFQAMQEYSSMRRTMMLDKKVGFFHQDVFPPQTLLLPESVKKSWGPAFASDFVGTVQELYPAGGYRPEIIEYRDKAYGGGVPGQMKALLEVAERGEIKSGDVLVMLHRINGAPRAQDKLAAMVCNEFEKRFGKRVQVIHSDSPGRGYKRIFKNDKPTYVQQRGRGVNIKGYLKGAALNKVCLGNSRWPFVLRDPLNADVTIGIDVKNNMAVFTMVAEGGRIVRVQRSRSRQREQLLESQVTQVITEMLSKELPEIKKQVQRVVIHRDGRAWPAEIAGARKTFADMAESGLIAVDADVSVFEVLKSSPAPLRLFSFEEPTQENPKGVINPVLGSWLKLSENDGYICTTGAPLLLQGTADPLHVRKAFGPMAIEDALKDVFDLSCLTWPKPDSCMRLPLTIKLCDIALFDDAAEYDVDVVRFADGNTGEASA
As to the kind of experiment: X-ray crystallography; no Mg2+. The following applies: protein: recombinant; tags: N-His6; single strand.

Data set [4] addresses T1, PliAgo WT. As to the kind of experiment: X-ray crystallography; 10 mM Tris-HCl pH 7.9, 100 mM NaCl, 5 mM MgCl2 (or none), 5% glycerol, 100 ug/ml BSA, 37 C. As to conditions: protein: recombinant; tags: N-His6; single strand.

For “GTTAGACTTTAAGTCAAT / UUUAUCAAAAAGAGUAUUGACUUAAAGUCUAACCUAUAGGAUACUUACAG [guide DNA / G-target-RNA]”, the Kd in data set [1] (guide-loaded, 5'-phosphate on guide) stood at 7.5 nM. That is a single-digit nanomolar value.

For “GTTAGACTTTAAGTCAAT [5'-OH guide DNA (G-guide)]”, the binding signal (fold Kd increase vs 5'-P guide) in data set [2] came out at 12.

For the molecule “GTTAGACTTTAAGTCAAT [5'-P guide DNA (G-guide)]”, the dissociation constant Kd in data set [1] (5 mM Mg2+, 5'-phosphate) is 31 nM; in data set [1] (no Mg2+, 5'-phosphate) it was 390 nM.

Molecule “GUUAGACUUUAAGUCAAU [guide RNA (G-guide-RNA)]” displayed a Kd in data set [1] (5 mM Mg2+, 5'-phosphate) of over 1000 nM.

As to TTACTGCACAGGTGACGA (ssDNA, 5'-phosphate) [3D-guide P-gDNA], the binding result with PliAgo WT [3] was “binds”.

As to TTACTGCACAGGTGACGA (ssDNA, 5'-OH) [3D-guide OH-gDNA], the binding result with PliAgo WT [4] was “binds”.

For orientation: Kd means the constant that tells how readily two partners part at equilibrium.
